The record followed here is publication PMC8575881, “Structure and activation mechanism of the hexameric plasma membrane H^+-ATPase” (Nature Communications, 2021).

Data set [1] concerns the molecule itself. The experiment in a line: SEC + native gel or EMSA; Superdex 200 10/300 in 20 mM HEPES pH 7.4, 150 mM NaCl; native gel electrophoresis. For orientation: A gel shift assay detects complexes by their altered migration in electrophoresis.
Data set [2] concerns the molecule itself. The data set is described as follows: SEC + native gel or EMSA; Superose 6 10/300 Increase in 20 mM HEPES pH 7.4, 150 mM NaCl, 0.003% LMNG, 0.0003% CHS, 1 mM MgCl2; native PAGE 4-20%, Tris-glycine pH 8.8.
Data set [3] deals with the molecule itself. The data set is described as follows: SEC + native gel or EMSA; gel filtration of Pma1-ΔC22 by the protocol of wild-type Pma1; fractions 10-16 ml on native PAGE.

B1: SUMO-tagged helix-i (C-terminal 22 residues of Pma1) with an N-terminal 6xHis-SUMO tag and TEV site (domain or fragment, S. cerevisiae, UniProt P05030 897-918, looked up)
chain: TRSVEDFMAAMQRVSTQHEKET
notes: Pma1, S. cerevisiae, helix-i, the C-terminal 22 amino acids (T897-T918); A TEV protease cleavage site lies between the 6xHis-SUMO tag and the peptide; also called C-terminal helix-I peptide; C-tail helix-i; source: E. coli Rosetta (DE3), pET28a, purified (Ni-beads, Superdex 200 gel filtration); not shown: His6, N-terminal, kept; SUMO, N-terminal, kept
For B1, the binding result in data set [1] is “binds”.

B2: S. cerevisiae plasma membrane H+-ATPase Pma1, full length, with a C-terminal triple FLAG epitope (enzyme, UniProt P05030 1-918, looked up)
chain: MTDTSSSSSSSSASSVSAHQPTQEKPAKTYDDAASESSDDDDIDALIEELQSNHGVDDEDSDNDGPVAAGEARPVPEEYLQTDPSYGLTSDEVLKRRKKYGLNQMADEKESLVVKFVMFFVGPIQFVMEAAAILAAGLSDWVDFGVICGLLMLNAGVGFVQEFQAGSIVDELKKTLANTAVVIRDGQLVEIPANEVVPGDILQLEDGTVIPTDGRIVTEDCFLQIDQSAITGESLAVDKHYGDQTFSSSTVKRGEGFMVVTATGDNTFVGRAAALVNKAAGGQGHFTEVLNGIGIILLVLVIATLLLVWTACFYRTNGIVRILRYTLGITIIGVPVGLPAVVTTTMAVGAAYLAKKQAIVQKLSAIESLAGVEILCSDKTGTLTKNKLSLHEPYTVEGVSPDDLMLTACLAASRKKKGLDAIDKAFLKSLKQYPKAKDALTKYKVLEFHPFDPVSKKVTAVVESPEGERIVCVKGAPLFVLKTVEEDHPIPEDVHENYENKVAELASRGFRALGVARKRGEGHWEILGVMPCMDPPRDDTAQTVSEARHLGLRVKMLTGDAVGIAKETCRQLGLGTNIYNAERLGLGGGGDMPGSELADFVENADGFAEVFPQHKYRVVEILQNRGYLVAMTGDGVNDAPSLKKADTGIAVEGATDAARSAADIVFLAPGLSAIIDALKTSRQIFHRMYSYVVYRIALSLHLEIFLGLWIAILDNSLDIDLIVFIAIFADVATLAIAYDNAPYSPKPVKWNLPRLWGMSIILGIVLAIGSWITLTTMFLPKGGIIQNFGAMNGIMFLQISLTENWLIFITRAAGPFWSSIPSWQLAGAVFAVDIIATMFTLFGWWSENWTDIVTVVRVWIWSIGIFCVLGGFYYEMSTSEAFDRLMNGKPMKEKKSTRSVEDFMAAMQRVSTQHEKET
notes: Plasma membrane H+-ATPase Pma1, S. cerevisiae, 918-residue protein, full length; Co-purified with endogenous lipids; residues 1-110 are disordered in the structures; The FLAG tag is not reported to be removed; also called Pma1-FL; wild-type Pma1; source: endogenous, tagged in the genome of yeast strain BY4742
Take B2: the “stoichiometry N” value in data set [2] turned out to be 6.

B3: Pma1-ΔC22, helix-i truncated Pma1 with a C-terminal FLAG tag (domain or fragment, S. cerevisiae, UniProt P05030 1-896, looked up)
chain: MTDTSSSSSSSSASSVSAHQPTQEKPAKTYDDAASESSDDDDIDALIEELQSNHGVDDEDSDNDGPVAAGEARPVPEEYLQTDPSYGLTSDEVLKRRKKYGLNQMADEKESLVVKFVMFFVGPIQFVMEAAAILAAGLSDWVDFGVICGLLMLNAGVGFVQEFQAGSIVDELKKTLANTAVVIRDGQLVEIPANEVVPGDILQLEDGTVIPTDGRIVTEDCFLQIDQSAITGESLAVDKHYGDQTFSSSTVKRGEGFMVVTATGDNTFVGRAAALVNKAAGGQGHFTEVLNGIGIILLVLVIATLLLVWTACFYRTNGIVRILRYTLGITIIGVPVGLPAVVTTTMAVGAAYLAKKQAIVQKLSAIESLAGVEILCSDKTGTLTKNKLSLHEPYTVEGVSPDDLMLTACLAASRKKKGLDAIDKAFLKSLKQYPKAKDALTKYKVLEFHPFDPVSKKVTAVVESPEGERIVCVKGAPLFVLKTVEEDHPIPEDVHENYENKVAELASRGFRALGVARKRGEGHWEILGVMPCMDPPRDDTAQTVSEARHLGLRVKMLTGDAVGIAKETCRQLGLGTNIYNAERLGLGGGGDMPGSELADFVENADGFAEVFPQHKYRVVEILQNRGYLVAMTGDGVNDAPSLKKADTGIAVEGATDAARSAADIVFLAPGLSAIIDALKTSRQIFHRMYSYVVYRIALSLHLEIFLGLWIAILDNSLDIDLIVFIAIFADVATLAIAYDNAPYSPKPVKWNLPRLWGMSIILGIVLAIGSWITLTTMFLPKGGIIQNFGAMNGIMFLQISLTENWLIFITRAAGPFWSSIPSWQLAGAVFAVDIIATMFTLFGWWSENWTDIVTVVRVWIWSIGIFCVLGGFYYEMSTSEAFDRLMNGKPMKEKKS
notes: Plasma membrane H+-ATPase Pma1, S. cerevisiae, lacking helix-i, the last 22 residues (T897-T918) of the 918-residue protein; also called Pma1-△C22; source: S. cerevisiae BY4742 transformed with the PRS423 vector; purified as wild-type Pma1 (anti-FLAG M2, gel filtration)
With B3, the binding result in data set [3] was “binds”.

In general, stoichiometry N refers to the number of molecules, sites or subunits per partner or assembly.
